From article PMC9259988, “Heterologous Expression and Evaluation of Novel Plasmodium falciparum Transmission Blocking Vaccine Candidates” (Frontiers in Immunology, 2022)

Target: the molecule itself
Test: non-reducing and reducing SDS-PAGE; purified protein run non-reduced and reduced (10 mM dithiothreitol) on a 4-20% Bis-Tris gel, Coomassie-type staining

B1: Pf3D7_1143700 fragment 1-100 expressed in Drosophila melanogaster S2 cells (TBC1^DM) (domain or fragment, Plasmodium falciparum 3D7, UniProt Q8IHS8 1-100, looked up)
chain: MKVKIGSFENFLERLNNIKEEDIIINDENTEEMFSSFLITFYKENEGRYTIQEQEYINNLLNILINKIRDNKNGRNFFSNLLCIHFKSITPYFINVKLKD
notes: Conserved Plasmodium protein, unknown function, PF3D7_1143700, Plasmodium falciparum 3D7 genome (PlasmoDB), residues 1-100; codon-optimised synthetic gene; secreted; the dimer is held by a disulphide bond
stoichiometry N: 2
